Reference: publication PMC3168947 (Molecular cell, 2011)
Positions count from the first letter of the chain named. Names and notes keep the numbering of the source. Values joined by “and” are separate entries in the source; they are usually repeats but may differ in a detail not shown here. Equal values may be shown once. Read-outs that look alike come from different tables or passages of the source. No end group written: not given here.

B1: ClpA6 (hexameric ClpA unfoldase, stabilised by ATPγS) (enzyme)
chain: MLNQELELSLNMAFARAREHRHEFMTVEHLLLALLSNPSAREALEACSVDLVALRQELEAFIEQTTPVLPASEEERDTQPTLSFQRVLQRAVFHVQSSGRNEVTGANVLVAIFSEQESQAAYLLRKHEVSRLDVVNFISHGTRKDEPTQSSDPGSQPNSEEQAGGEERMENFTTNLNQLARVGGIDPLIGREKELERAIQVLCRRRKNNPLLVGESGVGKTAIAEGLAWRIVQGDVPEVMADCTIYSLDIGSLLAGTKYRGDFEKRFKALLKQLEQDTNSILFIDEIHTIIGAGAASGGQVDAANLIKPLLSSGKIRVIGSTTYQEFSNIFEKDRALARRFQKIDITEPSIEETVQIINGLKPKYEAHHDVRYTAKAVRAAVELAVKYINDRHLPDKAIDVIDEAGARARLMPVSKRKKTVNVADIESVVARIARIPEKSVSQSDRDTLKNLGDRLKMLVFGQDKAIEALTEAIKMARAGLGHEHKPVGSFLFAGPTGVGKTEVTVQLSKALGIELLRFDMSEYMERHTVSRLIGAPPGYVGFDQGGLLTDAVIKHPHAVLLLDEIEKAHPDVFNILLQVMDNGTLTDNNGRKADFRNVVLVMTTNAGVRETERKSIGLIHQDNSTDAMEEIKKIFTPEFRNRLDNIIWFDHLSTDVIHQVVDKFIVELQVQLDQKGVSLEVSQEARNWLAEKGYDRAMGARPMARVIQDNLKKPLANELLFGSLVDGGQVTVALDKEKNELTYGFQSAQKHKAEAAH
B2: fluorescent N-end-rule peptide LLYVQRDSKEC-fl (peptide)
peptide: LLYVQRDSKEC(fluorescein maleimide)
B3: ClpS*^F (ClpS C73V; C101S; E96C labelled with fluorescein) (natural protein, E. coli, UniProt P0A8Q6 1-106, looked up)
chain: MGKTNDWLDFDQLAEEKVRDALKPPSMYKVILVNDDYTPMEFVIDVLQKFFSYDVERATQLMLAVHYQGKAIVGVFTAEVAETKVAMVNKYARENCHPLLSTLEKA
modifications: fluorescein maleimide on the single cysteine
B4: ClpS*^F bound to the N-end-rule peptide LLYVQRDSKEC (complex, E. coli)
chain: B3 chain
peptide: LLYVQRDSKEC
modifications: fluorescein maleimide on the single cysteine
B5: ^H66AClpS*^F (natural protein, E. coli, UniProt P0A8Q6 1-106, looked up)
chain: B3 chain with H66A
modifications: fluorescein maleimide on the single cysteine
B6: ^H66AClpS*^F bound to the N-end-rule peptide LLYVQRDSKEC (complex, E. coli)
chain: B3 chain with H66A
peptide: LLYVQRDSKEC
modifications: fluorescein maleimide on the single cysteine
B7: *L13 ClpS with ClpA6 (complex, E. coli)
chain 1: B1 chain
chain 2: MLAEEKVRDALKPPSMYKVILVNDDYTPMEFVIDVLQKFFSYDVERATQLMLAVHYQGKAICGVFTAEVAETKVAMVNKYARENEHPLLCTLEKA
B8: *A14 ClpS with ClpA6 (complex, E. coli)
chain 1: B1 chain
chain 2: MAEEKVRDALKPPSMYKVILVNDDYTPMEFVIDVLQKFFSYDVERATQLMLAVHYQGKAICGVFTAEVAETKVAMVNKYARENEHPLLCTLEKA
B9: *V18 ClpS with ClpA6 (complex, E. coli)
chain 1: B1 chain
chain 2: MVRDALKPPSMYKVILVNDDYTPMEFVIDVLQKFFSYDVERATQLMLAVHYQGKAICGVFTAEVAETKVAMVNKYARENEHPLLCTLEKA

Legend:
ClpA6 = ClpA6 (Escherichia coli, UniProt P0A8Q6+P0ABH9, C101S/C73V/E96C); type: binding, E. coli; conditions: for Kapp of ClpA6 for ClpS*^F in presence of peptide: fluorescence anisotropy, 200 nM ClpS*^F, 20 μM peptide, ATPγS, Fig. 3A; for ClpA6 bound ClpS*^F more tightly, fold: excess peptide, compared with […] peptide or absence of ligand
[1] = biological target: fluorescent N-end-rule peptide …-fl; assay: fluorescence polarisation
[2] = biological target: ClpS*^F variant with NTE deletion (E. coli); assay: fluorescence polarisation
[3] = biological target: T1, ClpS adaptor (intact, wild type) (E. coli, UniProt P0A8Q6 1-106); assay: fluorescence polarisation
T1 sequence (looked up): B3 chain with V73C, C96E, S101C

[4] = biological target: T2, ClpS^core (E. coli ClpS residues 26-106) (E. coli, UniProt P0A8Q6 26-106); assay: fluorescence polarisation
T2 sequence (looked up): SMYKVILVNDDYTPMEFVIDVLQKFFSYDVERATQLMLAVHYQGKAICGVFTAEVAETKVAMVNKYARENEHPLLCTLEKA

D20 ClpS with ClpA6 = biological target: T3, D20 ClpS with ClpA6 (E. coli, UniProt P0ABH9 1-758; P0A8Q6 20-106); assay: fluorescence polarisation
T3 sequence (looked up) 1: B1 chain
T3 sequence (looked up) 2: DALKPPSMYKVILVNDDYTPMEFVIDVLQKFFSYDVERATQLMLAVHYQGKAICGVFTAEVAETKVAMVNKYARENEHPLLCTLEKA

L22 ClpS with ClpA6 = biological target: T4, L22 ClpS with ClpA6 (E. coli, UniProt P0ABH9 1-758; P0A8Q6 22-106); assay: fluorescence polarisation
T4 sequence (looked up) 1: B1 chain
T4 sequence (looked up) 2: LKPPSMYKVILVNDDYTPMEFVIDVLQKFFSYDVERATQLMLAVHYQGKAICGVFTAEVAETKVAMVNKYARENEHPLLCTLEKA

ClpS-ClpA6 complex = biological target: T5, ClpS-ClpA6 complex (E. coli, UniProt P0ABH9 1-758; P0A8Q6 1-106); assay: fluorescence polarisation
T5 sequence (looked up) 1: B1 chain
T5 sequence (looked up) 2: B3 chain with V73C, C96E, S101C

[5] = biological target: T6, ClpA6 (hexameric ClpA unfoldase, stabilised by ATPγS) (E. coli, UniProt P0ABH9 1-758); assay: fluorescence polarisation
T6 sequence (looked up): B1 chain

[6] = biological target: T6, ClpA6 (hexameric ClpA unfoldase, …); assay: fluorescence polarisation; remark: listed apart in the source
[7] = biological target: T6, ClpA6 (hexameric ClpA unfoldase, …); assay: fluorescence polarisation; remark: listed apart in the source
[8] = biological target: T6, ClpA6 (hexameric ClpA unfoldase, …); assay: fluorescence polarisation; remark: listed apart in the source
ClpAP = assay: ClpAPS degradation of YLFVQELA-GFP; type: biochemical, E. coli; conditions: for K2 (unimolecular engagement step, global fit): YLFVQELA-GFP degradation, Vmax = Etotal•kdeg/(1+K2), KM = K1•K2/(1+K2); for K2 (unimolecular engagement step, global fit) / steady-state degradation kinetics, in words / reduction in Vmax compared to ClpS, fold: Fig. 4B; for steady-state degradation kinetics, in words / reduction in Vmax compared to ClpS, fold: 100 nM ClpA6, 200 nM ClpP14; for steady-state degradation kinetics, in words: 600 nM ClpS or variants; for reduction in Vmax compared to ClpS, fold: 600 nM ClpS variant
[9] = biological target: B2; assay: fluorescence polarisation

Molecule: MLYVQRDSKEC
- Kapp of ClpA6 for ClpS*^F in presence of peptide (ClpA6): ~ 180 nM

Molecule: Phe-Val [FV]
- ClpA6 bound ClpS*^F more tightly, fold (ClpA6): at least 9 fold
- Kapp of ClpA6 for ClpS*^F in presence of peptide (ClpA6): < 20 nM

Molecule: Trp-CONH2
- ClpA6 bound ClpS*^F more tightly, fold (ClpA6): at least 9 fold

Molecule: ClpS in complex with the ClpA N domain (from UniProt P0A8Q6 1-106)
- Kd [1]: 3000 nM

Molecule: B1
- fold reduction of affinity against ClpS*^F [2]: 10 fold

Molecule: B2
- Kd [3]: ~3000 nM
- Kd [4]: ~3000 nM
- Kd (D20 ClpS with ClpA6): 130 nM
- Kd (L22 ClpS with ClpA6): 290 nM
- Kd (ClpS-ClpA6 complex): 43 nM

Molecule: B3
- Kd [5]: < 20 nM
- Kd [6]: ~180 nM
- Kd [7]: 200 ± 6 nM

Molecule: B4
- Kd [8]: < 20 nM and 20 nM

Molecule: B5
- Kd [7]: 345 ± 3 nM

Molecule: B6
- Kd [8]: 178 ± 4 nM

Molecule: B7
- K2 (unimolecular engagement step, global fit) (ClpAP): 0.74
- steady-state degradation kinetics, in words (ClpAP; YLFVQELA-GFP): roughly similar steady-state degradation kinetics
- reduction in Vmax compared to ClpS, fold (ClpAP; YLFVQELA-GFP): 1.3 fold
- delivery of N-end-rule substrate for ClpAP degradation (ClpAP; YLFVQELA-GFP, ClpS variants, in words): mediated efficient substrate degradation
- Kd [9]: 100 nM

Molecule: B8
- K2 (unimolecular engagement step, global fit) (ClpAP): 9.2
- steady-state degradation kinetics, in words (ClpAP; YLFVQELA-GFP): substantial decrease in Vmax
- reduction in Vmax compared to ClpS, fold (ClpAP; YLFVQELA-GFP): 7.5 fold
- Kd [9]: 130 nM

Molecule: B9
- Kd [9]: 83 nM
